In patent publication US20190352341 (published 2019):
Where two headings read alike, the source gives them in different places. Square brackets hold non-standard residues; d marks the D form. Ends that are not written are not given here. Met(O) = CS(=O)CC[C@H](N)C(=O)O; pS = N[C@@H](COP(=O)(O)O)C(=O)O

B1: P140 (peptide)
chain: RIHMVYSKR[pS]GKPRGYAFIEY
B2: P140(MO) (peptide)
chain: RIH[Met(O)]VYSKR[pS]GKPRGYAFIEY

Columns and labels:
HSC70 [1] = target: T1, HSC70 (bovine, UniProt P19120); test: SPR, 25C pH 7.4
T1 sequence (P19120 2-650): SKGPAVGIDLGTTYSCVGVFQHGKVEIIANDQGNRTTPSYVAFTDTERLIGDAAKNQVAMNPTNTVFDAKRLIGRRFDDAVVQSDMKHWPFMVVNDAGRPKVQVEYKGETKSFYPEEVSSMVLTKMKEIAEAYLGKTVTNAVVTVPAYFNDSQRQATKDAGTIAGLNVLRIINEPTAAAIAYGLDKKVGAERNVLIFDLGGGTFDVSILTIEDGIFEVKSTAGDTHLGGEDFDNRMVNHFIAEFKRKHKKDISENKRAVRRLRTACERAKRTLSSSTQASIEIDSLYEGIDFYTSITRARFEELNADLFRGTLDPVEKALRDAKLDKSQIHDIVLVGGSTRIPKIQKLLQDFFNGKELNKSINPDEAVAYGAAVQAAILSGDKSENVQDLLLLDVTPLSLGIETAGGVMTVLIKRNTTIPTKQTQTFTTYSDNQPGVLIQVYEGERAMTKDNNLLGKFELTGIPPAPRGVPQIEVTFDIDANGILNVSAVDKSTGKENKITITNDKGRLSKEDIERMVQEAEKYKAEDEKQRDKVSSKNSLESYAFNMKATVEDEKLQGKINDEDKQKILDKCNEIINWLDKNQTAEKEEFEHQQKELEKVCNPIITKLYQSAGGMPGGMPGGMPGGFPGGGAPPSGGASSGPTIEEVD

HSC70 [2] = target: T1, HSC70; test: SPR, 25C pH 7.4; remark: listed apart in the source

Row | Binder | Kd (HSC70 [1]) [µM] | Kd (HSC70 [2]) [µM]
1 | B1 | 6.94 | –
2 | B2 | – | 1.91
